From patent US20040018971A1 (published 2004) come the findings set out here.

B1: Her2/neu.649, 10-mer (peptide)
peptide: SPLTSIISAV
notes: 10-mer native HER2/neu peptide starting at position 649
B2: HER2/neu peptide, position 1014, 10 amino acids (peptide)
peptide: MGDLVDAEEY
B3: HER2/neu peptide, position 997, 9 amino acids (peptide)
peptide: ASPLDSTFY
B4: HER2/neu peptide, position 828, 8 amino acids (peptide)
peptide: QIAKGMSY
B5: HER2/neu peptide, position 1212, 11 amino acids (peptide)
peptide: AFSPAFDNLYY
B6: HER2/neu peptide, position 727, 9 amino acids (peptide)
peptide: GSGAFGTVY
B7: HER2/neu peptide, position 281, 9 amino acids (peptide)
peptide: SMPNPEGRY
B8: HER2/neu peptide, position 401, 9 amino acids (peptide)
peptide: ETLEEITGY
B9: HER2/neu peptide, position 580, 11 amino acids (peptide)
peptide: EADQCVACAHY
notes: also called Her2/neu.580
B10: HER2/neu peptide, position 1212, 10 amino acids (peptide)
peptide: AFSPAFDNLY
B11: HER2/neu peptide, position 601, 10 amino acids (peptide)
peptide: PSGVKPDLSY
B12: HER2/neu peptide, position 728, 8 amino acids (peptide)
peptide: SGAFGTVY
B13: HER2/neu peptide, position 40, 11 amino acids (peptide)
peptide: ETHLDMLRHLY
notes: also called Her2/neu.40
B14: HER2/neu peptide, position 291, 11 amino acids (peptide)
peptide: FGASCVTACPY
B15: HER2/neu peptide, position 726, 10 amino acids (peptide)
peptide: LGSGAFGTVY
B16: HER2/neu peptide, position 293, 9 amino acids (peptide)
peptide: ASCVTACPY
notes: also called Her2/neu.293
B17: HER2/neu peptide, position 292, 10 amino acids (peptide)
peptide: GASCVTACPY
B18: HER2/neu peptide, position 1013, 11 amino acids (peptide)
peptide: DMGDLVDAEEY
B19: HER2/neu peptide, position 1102, 11 amino acids (peptide)
peptide: PTHDPSPLQRY
notes: H is used here
B20: HER2/neu peptide, position 764, 9 amino acids (peptide)
peptide: NKEILDEAY
B21: HER2/neu peptide, position 74, 10 amino acids (peptide)
peptide: LQDIQEVQGY
B22: HER2/neu peptide, position 916, 8 amino acids (peptide)
peptide: MTFGAKPY
B23: HER2/neu peptide, position 1213, 9 amino acids (peptide)
peptide: FSPAFDNLY
B24: HER2/neu peptide, position 333, 11 amino acids (peptide)
peptide: KCSKPCARVCY
B25: HER2/neu peptide, position 334, 10 amino acids (peptide)
peptide: CSKPCARVCY
B26: HER2/neu peptide, position 915, 9 amino acids (peptide)
peptide: LMTFGAKPY
B27: HER2/neu peptide, position 1241, 8 amino acids (peptide)
peptide: PTAENPEY
B28: HER2/neu peptide, position 901, 8 amino acids (peptide)
peptide: HQSDVWSY
B29: HER2/neu peptide, position 403, 9 amino acids (peptide)
peptide: LEEITGYLY
B30: HER2/neu peptide KGPLPTDCCHEQCAA (position 228) (peptide)
peptide: KGPLPTDCCHEQCAA
notes: also called Her2/neu.228
B31: HER2/neu peptide FVVIQNEDLGPASPL (position 986) (peptide)
peptide: FVVIQNEDLGPASPL
notes: also called Her2/neu.986
B32: HER2/neu peptide SLSFLQDIQEVQGYV (position 70) (peptide)
peptide: SLSFLQDIQEVQGYV
notes: also called Her2/neu.70
B33: HER2/neu peptide TAPLQPEQLQVFETL (position 389) (peptide)
peptide: TAPLQPEQLQVFETL
notes: also called Her2/neu.389
B34: HER2/neu peptide ETEYHADGGKVPIKW (position 874) (peptide)
peptide: ETEYHADGGKVPIKW
notes: also called Her2/neu.874
B35: HER2/neu peptide PSGVKPDLSYMPIWK (position 601) (peptide)
peptide: PSGVKPDLSYMPIWK
notes: also called Her2/neu.601
B36: HER2/neu peptide RSLLEDDDMGDLVDA (position 1006) (peptide)
peptide: RSLLEDDDMGDLVDA
notes: also called Her2/neu.1006
B37: HER2/neu peptide SDVFDGDLGMGAAKG (position 1083) (peptide)
peptide: SDVFDGDLGMGAAKG
notes: also called Her2/neu.1083
B38: HER2/neu peptide IWKFPDEEGACQPCP (position 613) (peptide)
peptide: IWKFPDEEGACQPCP
notes: also called Her2/neu.613
B39: HER2/neu peptide TVPLPSETDGYVAPL (position 1117) (peptide)
peptide: TVPLPSETDGYVAPL
notes: also called Her2/neu.1117
B40: HER2/neu peptide LVTYNTDTFESMPNP (position 271) (peptide)
peptide: LVTYNTDTFESMPNP
notes: also called Her2/neu.271
B41: HER2/neu peptide KNGVVKDVFAFGGAV (position 1177) (peptide)
peptide: KNGVVKDVFAFGGAV
notes: also called Her2/neu.1177
B42: HER2/neu peptide DLTLGLEPSEEEAPR (position 1058) (peptide)
peptide: DLTLGLEPSEEEAPR
notes: also called Her2/neu.1058
B43: HER2/neu peptide VHTVPWDQLFRNPHQ (position 477) (peptide)
peptide: VHTVPWDQLFRNPHQ
notes: also called Her2/neu.477
B44: HER2/neu peptide YRSLLEDDDMGDLVD (position 1005) (peptide)
peptide: YRSLLEDDDMGDLVD
notes: also called Her2/neu.1005
B45: HER2/neu peptide YNYLSTDVGSCTLVC (position 301) (peptide)
peptide: YNYLSTDVGSCTLVC
notes: also called Her2/neu.301
B46: HER2/neu peptide GDLVDAEEYLVPQQG (position 1015) (peptide)
peptide: GDLVDAEEYLVPQQG
notes: also called Her2/neu.1015
B47: HER2/neu peptide VTCFGPEADQCVACA (position 574) (peptide)
peptide: VTCFGPEADQCVACA
notes: also called Her2/neu.574
B48: HER2/neu peptide NQEVTAEDGTQRCEK (position 319) (peptide)
peptide: NQEVTAEDGTQRCEK
notes: also called Her2/neu.319
B49: HER2/neu peptide DTILWKDIFHKNNQL (position 165) (peptide)
peptide: DTILWKDIFHKNNQL
notes: also called Her2/neu.165
B50: HER2/neu peptide AIKVLRENTSPKANK (position 751) (peptide)
peptide: AIKVLRENTSPKANK
notes: also called Her2/neu.751
B51: HER2/neu peptide NKEILDEAYVMAGVG (position 764) (peptide)
peptide: NKEILDEAYVMAGVG
notes: also called Her2/neu.764
B52: HER2/neu peptide DNLYYWDQDPPERGA (position 1218) (peptide)
peptide: DNLYYWDQDPPERGA
notes: also called Her2/neu.1218
B53: HER2/neu peptide MRRLLQETELVEPLT (position 687) (peptide)
peptide: MRRLLQETELVEPLT
notes: also called Her2/neu.687
B54: HER2/neu peptide SLAFLPESFDGDPAS (position 373) (peptide)
peptide: SLAFLPESFDGDPAS
notes: also called Her2/neu.373
B55: Her2/neu.133 (10-mer) (peptide)
peptide: SPGGLRELQL
B56: Her2/neu.133 (8-mer) (peptide)
peptide: SPGGLREL
B57: Her2/neu.642 (peptide)
peptide: CPAEQRASPL
notes: native HER2/neu peptide from position 642
B58: Her2/neu.336 (peptide)
peptide: KPCARVCYGL
notes: native HER2/neu peptide from position 336
B59: HER2/neu peptide, position 282, 8 amino acids (peptide)
peptide: MPNPEGRY

The first assay has as its target HLA-B*5401 (human). As to the kind of experiment: competition vs 125I-labeled standard peptide, purified HLA.
Regarding B1, the IC50 is 667 nM.

The next assay deals with HLA-B*0702 (human). The assay is described as above.
Consider B1, for which the half-inhibitory concentration (IC50) was found to be 61 nM.

A further assay deals with T1, HLA-A*0101 (human).
T1 construct: also called HLA-A1
As to the kind of experiment: competition with 125I-labelled probe peptide for purified HLA-A*0101, gel filtration; relative to standard peptide.
As for B2, the “relative binding ratio (IC50 of standard peptide / IC50 of test peptide)” value is 0.012 relative binding ratio.
Same read-out and setting: with B3 the figure was 0.029 relative binding ratio.
On the same count and under the same terms, as for B4, the figure is -0.0021 relative binding ratio; as for B5, 0.014 relative binding ratio; as for B6, 0.0011 relative binding ratio.
In the case of B7, the “relative binding ratio (IC50 of standard peptide / IC50 of test peptide)” value was 0.0028 relative binding ratio.
On the same count and under the same terms, as for B8, the figure is 0.043 relative binding ratio.
Same read-out and setting: with B9 the figure was 0.1 relative binding ratio.
The same measure, in the same setting: with B10 the figure was 0.001 relative binding ratio; with B11, 0.001 relative binding ratio.
For B12, the “relative binding ratio (IC50 of standard peptide / IC50 of test peptide)” value was -0.0021 relative binding ratio.
Same read-out and setting: as for B13, the figure is 0.28 relative binding ratio.
As for B14, the “relative binding ratio (IC50 of standard peptide / IC50 of test peptide)” value stood at 0.01 relative binding ratio.
Still for that read-out and setting: with B15 the figure was 0.001 relative binding ratio; with B16, 0.055 relative binding ratio.
For B17, the “relative binding ratio (IC50 of standard peptide / IC50 of test peptide)” value is 0.0012 relative binding ratio.
On the same count and under the same terms, with B18 the figure was 0.0027 relative binding ratio.
For B19, the “relative binding ratio (IC50 of standard peptide / IC50 of test peptide)” value came to 0.016 relative binding ratio.
On the same count and under the same terms, with B20 the figure was 0.0017 relative binding ratio; with B21, 0.0015 relative binding ratio; with B22, -0.0021 relative binding ratio.
Still for that read-out and setting: as for B23, the figure is 0.043 relative binding ratio; as for B24, -0.0017 relative binding ratio.
Still for that read-out and setting: with B25 the figure was 0.0016 relative binding ratio.
With B26, the “relative binding ratio (IC50 of standard peptide / IC50 of test peptide)” value turned out to be 0.0011 relative binding ratio.
Same read-out and setting: as for B27, the figure is 0.003 relative binding ratio; as for B28, -0.0021 relative binding ratio.
The same measure, in the same setting: with B29 the figure was 0.0057 relative binding ratio.

The next assay addresses T2, HLA-DR3 (DRB1*0301) (human).
T2 construct: purified HLA class II molecule
As to the kind of experiment: competition binding assay, purified HLA, 125I-labelled probe peptide, gel filtration.
As to B30, the relative binding ratio was -0.0027 ratio to standard peptide.
The same measure, in the same setting: as for B31, the figure is -0.0025 ratio to standard peptide.
Still for that read-out and setting: with B32 the figure was 0.052 ratio to standard peptide.
Same read-out and setting: with B33 the figure was 0.0023 ratio to standard peptide.
For B34, the relative binding ratio was -0.0027 ratio to standard peptide.
On the same count and under the same terms, as for B35, the figure is -0.0027 ratio to standard peptide; as for B36, 0.008 ratio to standard peptide; as for B37, -0.0025 ratio to standard peptide.
Take B38: the relative binding ratio was -0.0027 ratio to standard peptide.
The same measure, in the same setting: as for B39, the figure is -0.0025 ratio to standard peptide; as for B40, -0.0027 ratio to standard peptide; as for B41, -0.0025 ratio to standard peptide.
Same read-out and setting: as for B42, the figure is -0.0025 ratio to standard peptide; as for B43, 0.022 ratio to standard peptide.
With B44, the relative binding ratio was 0.063 ratio to standard peptide.
The same measure, in the same setting: as for B45, the figure is 0.0059 ratio to standard peptide; as for B46, 0.025 ratio to standard peptide.
On to B47, for which the relative binding ratio was -0.0027 ratio to standard peptide.
On the same count and under the same terms, as for B48, the figure is -0.0027 ratio to standard peptide; as for B49, -0.0027 ratio to standard peptide.
On the same count and under the same terms, with B50 the figure was 0.0075 ratio to standard peptide.
On the same count and under the same terms, with B51 the figure was 0.0047 ratio to standard peptide.
On to B52, for which the relative binding ratio was -0.0025 ratio to standard peptide.
Still for that read-out and setting: as for B53, the figure is -0.0027 ratio to standard peptide; as for B54, -0.0027 ratio to standard peptide.

A further assay concerns the target HLA-B*0702 (human). In words: competition with 125I probe peptide, purified HLA.
In turn, B55 registered an IC50 of 95 nM.
Regarding B56, the IC50 came out at 100 nM.
The same measure, in the same setting: with B57 the figure was 37 nM; with B58, 149 nM.

The target in a further assay is HLA-B*0702 (human). In words: competition with 125I-labelled probe peptide for purified HLA, gel filtration.
Consider B59, for which the relative binding ratio is < 0.0006 ratio (IC50 of standard / IC50 of test peptide).
